Experimental data from publication PMC2659011.

How the values were obtained:
[1] = substrate: CC#CC(=O)C(=O)O; experiment: spectrophotometric hydration assay; assay type: biochemical, Corynebacterium glutamicum; conditions: 20 mM Na2HPO4 pH 9.0, 23 °C
[2] = substrate: O=C(O)/C=C/Cl; experiment: purified protein; conditions: 20 mM Na2HPO4 pH 9.0, 22 °C
[3] = substrate: O=C(O)/C=C\Cl; experiment: purified protein; conditions: 20 mM Na2HPO4 pH 9.0, 22 °C

B1: Cg10062 (Corynebacterium glutamicum ATCC 13032) (protein)
chain: PTYTCWSQRIRISREAKQRIAEAITDAHHELAHAPKYLVQVIFNEVEPDSYFIAAQSASENHIWVQATIRSGRTEKQKEELLLRLTQEIALILGIPNEEVWVYITEIPGSNMTEYGRLLMEPGEEEKWFNSLPEGLRERLTELEGSSE
B1 showed a Km [1] of 6.2 ± 0.75 mM, a kcat [1] of 0.33 ± 0.03 s⁻¹ and a kcat/Km [1] of 50 M⁻¹ s⁻¹. It also gave a Km [2] of 78 ± 36 mM, a kcat [2] of 0.06 ± 0.01 s⁻¹ and a kcat/Km [2] of 0.8 M⁻¹ s⁻¹. The Km [3] was 19 ± 1 mM, the kcat [3] was 3.5 ± 1.1 s⁻¹ and the kcat/Km [3] was 184 M⁻¹ s⁻¹.

B2: CaaD (trans-3-chloroacrylic acid dehalogenase) (Pseudomonas pavonaceae) (protein)
chain 1: PMISCDMRYGRTDEQKRALSAGLLRVISEATGEPRENIFFVIREGSGINFVEHGEHLPDYVPGNANDKALIAKLK
chain 2: PFIECHIATGLSVARKQQLIRDVIDVTNKSIGSDPKIINVLLVEHAEANMSISGRIHGEAASTERTPAVS
Work on B2 yielded a Km [2] of 0.028 ± 0.003 mM, a kcat [2] of 1.9 ± 0.6 s⁻¹ and a kcat/Km [2] of 68000 M⁻¹ s⁻¹.
